Laboratory results from the RNAGym collection of RNA variant scans (doi:10.1073/pnas.2313332121).

B1: TPR t1 (parent)
chain: GACCAAUCUGCCCUCAGAGCUCGAGAACAUCUUCGGAUGCAGAGGAGGCAGGCUUCGGUGGCGCGAUAGCGCCAACGUCCUCAACCUCCAAUGCAUCCCACCACAUGAUGAUGCCUGAAGAGCCUUGGUUUUUUG

Variants of: B1
Assay: polymerase ribozyme fitness, log enrichment relative to wild type (log ratio); higher = more active; in vitro selection for triplet polymerase activity
In short: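 For each subunit of a heterodimeric triplet polymerase ribozyme, a mutant library was built by PCR and transcribed, then taken through a single in vitro selection round in triplicate. Selection involved annealing to a biotinylated primer, the partner subunit and triplets, incubation frozen at −7 °C, gel excision of extended constructs, capture on streptavidin beads and RT-PCR. Genotypes were retained after Illumina sequencing of inputs and outputs only with ≥10 input reads and ≥1 read in each output. Fitness is defined as the logarithm of a genotype's enrichment relative to wild-type enrichment, using inverse-variance-weighted averages across replicates, with the logarithm taken to base 2.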

| Variant | polymerase ribozyme fitness (log ratio) |
| --- | --- |
| G42C C88G C114G | -4.43 |
| G42C C49A | -1.88 |
| A43C G69A C94G | -7.62 |
| A43C G45A G48C | -3.39 |
| A43C C72A | -2.05 |
| G42U G44U C53U G69U C79A G127U | -3.88 |
| A43C C53A C56A C72A | -2.36 |
| G42A C72G G93U | -3.39 |
| G42U C62A | -3.21 |
| G42U U55A C56G G77C C115A | -1.05 |
| G42C C85G | -3.39 |
| G42U G110A | -2.74 |
| G42U G60A G128C | -3.97 |
| G42U G77C C80U A84U C97U | -3.47 |
| G42U U81C C85G U126G | -6.41 |
| A43C C76U A91C G93C U112C G113U U116C | -6.51 |
| A43C G45U C73A A91U G93A U112A G128C | -5.37 |
| G42A U59G C73U U112G C123A | -4.46 |
| A43C G47U C53U C88G C104U | -6.05 |
| G42U C115G | -1.8 |
| G42U C115U | -1.27 |
| A43C U59G U78C A111U | -5.7 |
| G42A C89U | -1.16 |
| A43C G48C C123A | -1.93 |

| Variant | polymerase ribozyme fitness (log ratio) |
| --- | --- |
| A43G A108G | -4.26 |
| G42U C82U | -1.44 |
| G42U C82A | -1.61 |
| G42U G128A | -3.14 |
| G42A G61U A83U | -2.11 |
| G42U G120A | -1.14 |
| A43C C86U | -2.14 |
| G42C G45U U133A | -2.53 |
| G42U U125A | -1.61 |
| G42U U59C U87A A100U | -4.01 |
| A43C A50G G61A C115A U116C | -4.2 |
| G42U G45U C88G G110A | -3.96 |
| G42U G71A C86U U96A C97A U116G | -6.66 |
| A43C A50C C86U C89A | -4.9 |
| A43C C53G G61U G128A | -4.58 |
| G42A G113U | -3 |
| A43C G71U U112C G135A | -1.05 |
| G42U C53U U59G C89A C124A | -0.557 |
| A43C G77A | -2.79 |
| A43C G77C | -2.27 |
| A43C C85G | -3.37 |
| G42A U59A | -1.76 |
| G42C A50U C76G A111U | -6.27 |
| A43C C72A G122A | -3.17 |

| Variant | polymerase ribozyme fitness (log ratio) |
| --- | --- |
| G42C A111G | -1.3 |
| G42C A118G | -1.93 |
| G42A C73A C89G | -2.01 |
| A43G A46U U112G | -3.43 |
| A43C G44C G71C A118U U133G | -1.6 |
| G42A G61A A83U A121U | 0.412 |
| G42A G63C C94G U130G | -4.71 |
| G42A G58A | -1.77 |
| G42U G69U | -0.0944 |
| G42U G69C | -2.39 |
| A43C G69U C99U | -3.77 |
| G42A U54C G57A | -3.66 |
| A43C C70G A111U | -5.68 |
| A43C C62U C72G | -4.05 |
| G42C G117A | -2.18 |
| G42U C49A G69U | 0.552 |
| G42U U78A U81A U112A | -3.13 |
| A43C G61U C64G A121G | -6.23 |
| A43C C88U G93A | -1.96 |
| A43C U92G C101A U132A | -4.9 |
| G42C G47U A108C G110A U112A | -7.49 |
| G42C U55A G113U G120U C123U U125A | -3.47 |
| G42U C73G | -2.39 |
| G42U C62A C73U U112C U130G | -3.26 |

| Variant | polymerase ribozyme fitness (log ratio) |
| --- | --- |
| G42C G71U G117C | -4.87 |
| A43C U87G | -2.73 |
| A43C G58A U78A C114A | -5.29 |
| A43C G63A U78C C88A A91G C94U U130C | -4.78 |
| A43C C53A A95U U109A U130G | -7.32 |
| G42A G52C | -2.26 |
| G42C G61C C79U A90C C115G G120U G122A | -4.78 |
| G42U G63A C82U | -2.86 |
| G42U G71U G127U | -2.72 |
| A43C G48A C88U | -1.82 |
| G42U G63A A111G U112G C115A | -6 |
| G42C G63A G93C G113U | -5.92 |
| G42C C79U C82G C85G G110C | -5.74 |
| G42U A84U C115A G127A | -4.77 |
| G42U A119U | -1.27 |
| A43C U87A G110A | -5.45 |
| G42U G58C C82G U87C | -2.71 |
| G42U G60A U87A G113A | -3.78 |
| G42U A91C G117C | -3.63 |
| G42C U87A | -1.23 |
| G42C U87G | -1.08 |
| G42U U54A A91U A121C C124A | 0.144 |
| A43C G44U A111G | -1.62 |
| G42U G77U U92A U106A | -2.9 |

| Variant | polymerase ribozyme fitness (log ratio) |
| --- | --- |
| A43C C72U A103U U125A | -6.47 |
| G42A C72U C85U | -2.92 |
| G42U C72A | -0.339 |
| G42U C72G | -2.53 |
| G42U C76U A84U C88U | -2.62 |
| G42C U106A C115U G120U | -4.34 |
| G42C A50C | -2.31 |
| G42C A50U | -3.32 |
| G42U G47A G69A | -4.71 |
| G42A C94G | -3.05 |
| G42U G71C A111C U130C | -3.75 |
| G42A C89U G117A | -3.19 |
| G42C G57U U126G | -3.49 |
| G42A U129G | -2.39 |
| G42A G63C C86A | -3.7 |
| G42C C70A C104U | -4.4 |
| G42A U126G | -3.7 |
| G42C G128U U130A G135U | -4.23 |
| G42U U92A A118U | -2.03 |
| G42U G113C | -3.23 |
| G42U G113U | -3.06 |
| G42U C89U | -0.954 |
| A43C C53U G110C | -7.24 |
| G42U G44U G45A U54G C89G | -2.57 |

| Variant | polymerase ribozyme fitness (log ratio) |
| --- | --- |
| G42A C85A C94U | -3.73 |
| G42C G71A C72A C115U | -5.81 |
| G42U A83C G127U | -2.25 |
| G42U G45A | -1.25 |
| G42U C49U | -2.98 |
| G42C U78A C85U C123G G135U | -2.89 |
| G42A U54C | -1.78 |
| G42U A74U | -2.19 |
| G42C G61A C124A U125A | 0.506 |
| G42U C94G U96C | -4.23 |
| G42U A100C U116C | -4.27 |
| G42C U96G C124U | -0.43 |
| G42C G61C | -4.07 |
| G42A G122A | -2.59 |
| A43G A50C G57U | -2.8 |
| G42A G135U | -2.72 |
| G42C C49A G93C | -3.52 |
| G42C U109A | -5.54 |
| G42C C72U | -1.39 |
| G42U C72A U96C | -1.5 |
| G42C C115U | -2.24 |
| A43C G63A U78C C104A G120C | -6.92 |
| G42U U78A | -2.36 |
| G42A G60C C82A | -3.4 |

| Variant | polymerase ribozyme fitness (log ratio) |
| --- | --- |
| G42C C49G C72G | -3.71 |
| G42C C102A | -4.06 |
| G42U C88U G113U A121U U131G | -1.8 |
| G42A G44C G47C C97U G120U U130C | -3.09 |
| G42U U109G | -5.53 |
| G42A C82A A91C C115G | -4.43 |
| G42A G48U C56U C114U U131C | -3.37 |
| G42C C49A C56U U96A | -3.16 |
| A43C G47U G52A C56U | -4.62 |
| G42A G48U | -2.42 |
| G42U A46U C62U | -2.07 |
| G42C G77A | -1.99 |
| G42U C56A C64U | -2.46 |
| G42A U81C U129G | -4.71 |
| G42C G122A | -2.41 |
| A43G A50G G63C | -3.02 |
| G42C C53G | -1.2 |
| A43C U54C G58A C86A | -3.78 |
| G42A G69C | -3.78 |
| G42U G69C C123A | -3.23 |
| G42C G69U A91U C102U C123U | -0.432 |
| G42U C72G G117U | -4.8 |
| G42C A103G C114G G122U | -6.92 |
